Earlier results in patent US20040120897A1, “Method for administering insulinotropic peptides” (priority 1998, published 2004).

Details: calculated, background statement

| Substance | absorption value after delivery through the lungs |
| --- | --- |
| glycosylated α1-antitrypsin: protein cited in the background for its pulmonary absorption value | 48 h |
| parathyroid hormone (1-34): peptide hormone cited in the background for its pulmonary absorption value | fifteen |
